Experimental data reported in PMC3093405, “A Motif Unique to the Human Dead-Box Protein DDX3 Is Important for Nucleic Acid Binding, ATP Hydrolysis, RNA/DNA Unwinding and HIV-1 Replication” (PLoS ONE, 2011).

B1: DDX1: full length human DEAD-box protein DDX1, recombinant, largest known insertion between motifs I and Ia (protein, UniProt Q92499 1-740, looked up)
chain: MAAFSEMGVMPEIAQAVEEMDWLLPTDIQAESIPLILGGGDVLMAAETGSGKTGAFSIPVIQIVYETLKDQQEGKKGKTTIKTGASVLNKWQMNPYDRGSAFAIGSDGLCCQSREVKEWHGCRATKGLMKGKHYYEVSCHDQGLCRVGWSTMQASLDLGTDKFGFGFGGTGKKSHNKQFDNYGEEFTMHDTIGCYLDIDKGHVKFSKNGKDLGLAFEIPPHMKNQALFPACVLKNAELKFNFGEEEFKFPPKDGFVALSKAPDGYIVKSQHSGNAQVTQTKFLPNAPKALIVEPSRELAEQTLNNIKQFKKYIDNPKLRELLIIGGVAARDQLSVLENGVDIVVGTPGRLDDLVSTGKLNLSQVRFLVLDEADGLLSQGYSDFINRMHNQIPQVTSDGKRLQVIVCSATLHSFDVKKLSEKIMHFPTWVDLKGEDSVPDTVHHVVVPVNPKTDRLWERLGKSHIRTDDVHAKDNTRPGANSPEMWSEAIKILKGEYAVRAIKEHKMDQAIIFCRTKIDCDNLEQYFIQQGGGPDKKGHQFSCVCLHGDRKPHERKQNLERFKKGDVRFLICTDVAARGIDIHGVPYVINVTLPDEKQNYVHRIGRVGRAERMGLAISLVATEKEKVWYHVCSSRGKGCYNTRLKEDGGCTIWYNEMQLLSEIEEHLNCTISQVEPDIKVPVDEFDGKVTYGQKRAAGGGSYKGHVDILAPTVQELAALEKEAQTSFLHLGYLPNQLFRTF
modifications: full-length
notes: full length human DEAD-box protein DDX1, recombinant, largest known insertion between motifs I and Ia
B2: N-DDX3: DDX3 mutant lacking the C-terminus (Δ428–662), aa 1–427, entire subdomain 1 plus linker (protein, UniProt O00571 1-427, looked up, fragment)
chain: MSHVAVENALGLDQQFAGLDLNSSDNQSGGSTASKGRYIPPHLRNREATKGFYDKDSSGWSSSKDKDAYSSFGSRSDSRGKSSFFSDRGSGSRGRFDDRGRSDYDGIGSRGDRSGFGKFERGGNSRWCDKSDEDDWSKPLPPSERLEQELFSGGNTGINFEKYDDIPVEATGNNCPPHIESFSDVEMGEIIMGNIELTRYTRPTPVQKHAIPIIKEKRDLMACAQTGSGKTAAFLLPILSQIYSDGPGEALRAMKENGRYGRRKQYPISLVLAPTRELAVQIYEEARKFSYRSRVRPCVVYGGADIGQQIRDLERGCHLLVATPGRLVDMMERGKIGLDFCKYLVLDEADRMLDMGFEPQIRRIVEQDTMPPKGVRHTMMFSATFPKEIQMLARDFLDEYIFLAVGRVGSTSENITQKVVWVEESDK
B3: I-DDX3: double deletion DDX3 mutant (Δ1–159/Δ428–662), aa 160–427, helicase core of subdomain 1 (protein, UniProt O00571 160-427, looked up, fragment)
chain: FEKYDDIPVEATGNNCPPHIESFSDVEMGEIIMGNIELTRYTRPTPVQKHAIPIIKEKRDLMACAQTGSGKTAAFLLPILSQIYSDGPGEALRAMKENGRYGRRKQYPISLVLAPTRELAVQIYEEARKFSYRSRVRPCVVYGGADIGQQIRDLERGCHLLVATPGRLVDMMERGKIGLDFCKYLVLDEADRMLDMGFEPQIRRIVEQDTMPPKGVRHTMMFSATFPKEIQMLARDFLDEYIFLAVGRVGSTSENITQKVVWVEESDK

Experiments:
Assay type in all cases: biochemical
[1] = ATPase activity assay ([γ-32P]ATP hydrolysis, TLC), steady-state kinetics; settings: for Intrinsic ability to hydrolyze ATP: absence of nucleic acid; for Stimulation of ATPase activity by nucleic acids: presence of both NA (RNA, DNA)
Description: (§1) The ATPase activity was determined, as previously described, by directly monitoring [γ-^32P] ATP hydrolysis by thin-layer chromatography (TLC). ATP (3000 Ci/mmol) as tracer, plus 1 mM of cold ATP, unless otherwise stated, and nucleic acids as indicated. Samples were incubated for 5 minutes at 25°C and dotted onto TLC sheets of polyethylenimine cellulose. The products were separated by ascending chromatography with 0.5 M KH2PO4 (pH 3.4). The intensities of the radioactive bands corresponding to ATP and Pi were quantified by densitometric scanning with PhosphoImager. For the stimulation of the ATPase activity, the ssDNA oligonucleotide oligo(dT)20 or the ssRNA oligonucleotide oligo (rU)20 were used. Time-course experiments were performed under the conditions described above. Samples were taken at different time points and processed as described above.
ATPase reactions were performed as described, in the presence of increasing amounts of nucleic acids and variable ATP concentrations. […] The relative -fold increase in the ATPase velocities 1−(vDNA/v) as a function of the nucleic acid concentrations was fitted to the hyperbolic relationship: [drawing 2] (2) where vNA is the apparent velocity of the reaction in the presence of nucleic acid, v is the velocity in its absence, KD is the apparent affinity for the nucleic acid and [NA] is the concentration of the nucleic acid substrate. The symbol KD is used, instead of Km, solely to reflect the fact that the NA is not a reactant (i.e. it is not converted into products) but only a cofactor of the reaction, without implying any assumption on the nature of the microscopic rates contributing to the KD value itself.

[2] = test system: partially dsDNA substrates (18/38-mer); assay: DNA helicase assay; settings: for DNA helicase activity: data not shown
Text: (§2) The helicase activity of DDX3wt and mutant forms was monitored by measuring the conversion of a double stranded (ds) DNA or RNA (labelled at the 5′-end of one strand with a 6-FAM fluorescent group) into single stranded (ss) nucleic acid. For the RNA helicase assay, a 18/36mer ds RNA oligonucleotide with both 3′ and 5′-protruding ss ends was used. For the DNA helicase assay, three different dsDNA substrates were used, all of them composed of the same 18mer oligonucleotide 5′-FAM labelled and three different 38 mer oligonucleotides with the sequence complementary to the 18 mer at different positions. Annealing of the 18 mer to each of the 38 mer generated the different DNA substrates shown in Fig. 5 A. A final concentration of 20 nM RNA or DNA substrate was used in the experiments, unless otherwise stated. The amounts of the different DDX3 proteins are indicated in the respective Figures.
Reactions were performed in 50 mM TrisHCl pH 7.5, 1 mM DTT, 0.2 mg/ml BSA, 5% glycerol and 1 mM ATP, 10 mM MgCl2 at 37°C degrees for 10′ and stopped by adding EDTA 50 mM pH 8. Products were separated on a native 7% PAGE […] at 5 W in TBE buffer with 0.1% SDS at 4°C for 2 hours for RNA substrates, 4 hours for DNA substrates. Substrates and products were quantified by laser scanning densitometry (Thyphoon-TRIO, GE Healthcare). For trap-assays, the enzyme and the RNA substrate were incubated on ice for 4 min, in the absence of ATP. Reactions were started by addition of ATP and a 50-fold molar excess (1 µM) of r(A)40 trap RNA oligonucleotide, followed by incubation at 37°C for the indicated times.

[3] = ATPase time-course (burst kinetics)
Description: as §1
Variation of the ATPase reaction as a function of time was fitted to the mixed-exponential equation: [drawing 3] (3) where [P] is the concentration of products (pmols) at any given time point, t is time, Aburst is the burst amplitude, k burst is the rate of the exponential phase, k ss is the rate of the steady-state linear phase.

[4] = test system: 18/36mer ds RNA oligonucleotide; assay: RNA helicase assay; settings: data not shown
Text: as §2
Reactions were performed in 50 mM TrisHCl pH 7.5, 1 mM DTT, 0.2 mg/ml BSA, 5% glycerol and 1 mM ATP, 10 mM MgCl2 at 37°C degrees for 10′ and stopped by adding EDTA 50 mM pH 8. Products were separated on a native 7% PAGE […] at 5 W in TBE buffer with 0.1% SDS at 4°C for 2 hours for RNA substrates, 4 hours for DNA substrates. Substrates and products were quantified by laser scanning densitometry (Thyphoon-TRIO, GE Healthcare). […]

[5] = relative to absence of nucleic acid

| Molecule | k cat ([1]; +DNA, oligo(dT)20) | k cat ([1]; +RNA, oligo(rU)20) | k cat ([1]; absence of nucleic acids) | Increase of catalytic efficiency (kcat/Km) by DNA [1, 5] | Increase of catalytic efficiency (kcat/Km) by RNA [1, 5] | DNA unwinding ([2]; DNA duplex with both 5′- and 3′-protruding ssDNA ends, 18/[5′-3′]-38 mer) | Intrinsic ability to hydrolyze ATP [1] | Stimulation of ATPase activity by nucleic acids [1] | Aburst ([3]; +DNA, oligo(dT)20) | k burst ([3]; +DNA, oligo(dT)20) | k ss ([3]; +DNA, oligo(dT)20) | Aburst ([3]; +RNA, oligo(rU)20) | k burst ([3]; +RNA, oligo(rU)20) | k ss ([3]; +RNA, oligo(rU)20) | Aburst ([3]; absence of nucleic acids) | k burst ([3]; absence of nucleic acids) | k ss ([3]; absence of nucleic acids) | RNA helicase activity [4] | DNA helicase activity [2] |
| --- | --- | --- | --- | --- | --- | --- | --- | --- | --- | --- | --- | --- | --- | --- | --- | --- | --- | --- | --- |
| B1 | 2.1 ± 0.3 min⁻¹ | 3.8 ± 0.5 min⁻¹ | 1.9 ± 0.3 min⁻¹ | 1.3 fold | 2.6 fold | did not display DNA unwinding capability |  |  |  |  |  |  |  |  |  |  |  |  |  |
| B2 | 1.1 ± 0.5 min⁻¹ | 0.98 ± 0.03 min⁻¹ | 0.8 ± 0.3 min⁻¹ |  |  |  | low but detectable ATPase activity | no stimulation | 0.12 ± 0.01 µM | 0.5 ± 0.5 min⁻¹ | 0.33 ± 0.05 min⁻¹ | 0.13 ± 0.01 µM | 0.5 ± 0.5 min⁻¹ | 0.35 ± 0.06 min⁻¹ | 0.12 ± 0.02 µM | 1 ± 0.5 min⁻¹ | 0.4 ± 0.05 min⁻¹ | did not show helicase activity | inactive |
| B3 | 1.4 ± 0.4 min⁻¹ | 1.6 ± 0.5 min⁻¹ | 1.1 ± 0.2 min⁻¹ |  |  |  | low but detectable ATPase activity | no stimulation | 0.15 ± 0.02 µM | 0.4 ± 0.6 min⁻¹ | 0.3 ± 0.05 min⁻¹ | 0.11 ± 0.03 µM | 0.4 ± 0.5 min⁻¹ | 0.4 ± 0.04 min⁻¹ | 0.12 ± 0.02 µM | 0.3 ± 0.4 min⁻¹ | 0.3 ± 0.05 min⁻¹ | did not show helicase activity | inactive |
